Reference: paper PMC7381529 (Protein & Cell, 2020)
Where “and” joins values, the source holds several entries; their conditions need not be identical. Equal values may be shown once.

Biological target: the molecule itself
Assay: crystal structure

B1: African swine fever virus p15 (mature protein p15, wild type) (natural protein)
chain: MPSNMKQFCKISVWLQQHDPDLLEIINNLCMLGNLSAAKYKHGVTFIYPKQAKIRDEIKKHAYSNDPSQAIKTLESLILPFYIPTPAEFTGEIGSYTGVKLEVEKTEANKVILKNGEAVLVPAADFKPFPDRRLAVWIMESGSMPLEGPPYKRKKEGG
- stoichiometry N: 2 and 6
